# Data published in the nanobody polyreactivity screen of Harvey et al. (2022).
# Test: yeast display, Sf9 membrane polyspecificity reagent, FACS + sequencing; frameworks hold sequencing errors
# How it was run: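 Genes from sorted yeast were amplified by colony PCR, read by MiSeq 2 × 250 sequencing and filtered on CDR length. These cells carried a synthetic nanobody library in Saccharomyces cerevisiae BJ5465 and were sorted by FACS into low and high (top ~1%) gates on anti-HA and streptavidin fluorescence. Polyreactivity is labelled according to the gate of origin.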
row,Sequence,polyreactivity (PSR sort gate)
1,QVQLVESGGGLVQAGGSLRLSCAASGIYAMGWYRQAPGKERELVAAIRWSGGSTYYADSVKGRFTISRDNAKNTVYLQMNSLKPEDTAVYYCAKRLRPGGYWYDYWGQGTQVTVSS,high polyreactivity
2,QVQLVESGGGLVQAGGSLRLSCAASGSIFRRYTMGWYRPAPGKERELVAAISRVGNTNYADSVKGRFTISRDNAKNTVYLPMNSLKPEDTAVYYCAARAIGYRYTPGLNYWGQGTQLTVSS,high polyreactivity
3,QVQLVESGGGLVQAGGSLRLSCAASGFTFYTNAMGWYRQAPGHERELVARISRRGGSTYYADSVKGRFTISRDNAKNTVYLQMNSLKPEDTAVYYCNADGRAAVQYDYWGQGTQVTVSS,high polyreactivity
4,QVQLVESGGGLVQAGGSLRFSCSASGRTFLIYAMGWYRQAPGKARELVAAINFSGGNTYYADSVKGRFTISRDNAKNTVYLQMNSLKPEDTAVYYCAAGVYSFRYDYWGQGTQVTVSS,low polyreactivity
5,QVQLVESGGGLVQAGGSLRLSCAASGSTFRYNAMGWYRQAPGKERELVAAINRGGGTDYADSVKGRFTISRDNAKNTVYLQMNSLKPEDTAVYYCAKQFVSYNRWLAYGYWGQGTQVTVSS,low polyreactivity
6,QVQLVESGGGLVQAGGSLRLSCAASGLTFGRYAMGWYRQAPGKERELVAAITARVGRTYYADSVKGRFTISRDNAKNTVYLQMNSLKPEDTAVYYCAAGPSYYWYSHEKYDYWGQGTQVTVSS,high polyreactivity
7,QVHLVESGGGLVQAGGSLRLSCHASGSNFYSYGLGSYRQAPGKERELVAAITSSGGGTYYADSVKGGFTISRDNAKNTVYLQMHSLKPEDTAVYYCNADHFSDNSSTQYDYWGQGTQVTVSS,low polyreactivity
8,QVQLVESGGGLVQAGGSLRLSCAASGRIFYFNGMGWDRQAPGKERELVAAITWNTGSTYYADSVKGRFTISRDNAKNTVYLQMNSLKPEDTAVYYCNAPWAGQHPTLWKGGYWGQGTQVTVSS,low polyreactivity
9,QVQLVESGGGLVQAGGSLRLSCAASGFTFVAYAMGWYRQAPGKERELVAAISRRGGTTYYADSVKGRFTISRDNAKNTVYLQMNSLKPEDTAVYYCNARGFPGKFGYWGQGTQVTVSS,high polyreactivity
10,QVQLVESGGGLVQAGGSLRLSCAASGFTFNYNARGWYSQAPGNDRELVAAIRRSGGSTYYADSGKGRFTISRDNAKNTVYLQMNSLKPEDTAVYYCAARQSFLYGYWGQGTQVTVSS,high polyreactivity
11,QVQHVESGGGLVQAGGSLRLSCAASGSTFAVYTMGWYRQAPGKERELSTSYADSVKGRFTISRDNAKNTVYLQMNSLKPEDTAVYYCNRDFYEFDSNSYRFDYWGQGTQVTVSS,low polyreactivity
12,QVQLVESGGGLVQAGGSLRLSCAASGITFRRYALGWYRQAPGKERELVAAITSGGGTYYADSVKGRFTISRDNAKNTVYLQMNSLKPEDTAVYYCNTYYHWLTMDYWGQGTQVTVSS,high polyreactivity
13,QVQHVESVGGLVQAGGSLRLSCAASGLIFLYNAMGWYRQAPGKVRELVAAITSSGGSTYYADSVKGRLTISRDYAKNTVYLQMNSLKPEDTAVYYCANRYQSYYYSHWGYRYYWGQGTQVTVSS,high polyreactivity
14,QVQLVESGGGLVQAGGSLRLSCAASGFTFASNCMGWYRQAPGKERELVAVIDWSDDSTYYADSVKGRFTISRDNAKNTVYLQMNSLKPEDTAVYYCKADVWWGGYDYWGQGTQVNVSS,low polyreactivity
15,QVQLVESGGGLVQAGGSLRLSCAASGSIFVYYAMGWYRQAPGKERELVARIRIGGSTNYADSVKGRFTISRDNAKNTVYLQMNSLKPEDTAVYYCIKYSVLSRQRYSHPVNYDSWGQGTQVTVSS,high polyreactivity
16,QVQLVESGGGLVQAGGSLRLSCAASGSTFDYYSMGWYRQAPGKERELVAAISYSGSRTYYADSVKGRFTISRDNAKNTVYLQMNSLKPEDTAVYYCAARRGYVKGKTYDYWGQGTQVTVSS,high polyreactivity
17,QVQLVESGGGLVQAGGSLRLSCAASGFTSDAYAMGCYRQAPGKDRELVAAISGSGDITYYADSVKGRFTISRDNAKYTVYFQMNSLKPEDTAVYYCSVGSYYAWFYYWGQGTQVTVSS,high polyreactivity
18,QVQLVESGGGLVQAGGRLRLSCAASGSIFGTNAMGWYRQAPGKERELVAAISSSGTSTYYADSVKGRFTISRDNAKNTVYLQMNSLKPEDTAVYYCAAATNWGGEYWGQGTQVTVSS,high polyreactivity
19,QVQLQESGGCVVQAGGSLRLSCAASGTISDSGLMGWYRQAPGKERELVAGISSGGITNYADSVKGRFTISRDNAKNTVYLQMNSLKPEDTAVYWGQGTQVTVSS,low polyreactivity
20,QVQLVESGGGLVQAGGSLRLSCAASGYTFYAYAMGWYRQAPGTERELVAAITSGSSTYYADSVKGRFTISRDNAKNTVYLQMNSLKPEDTAVYYCSAEVFPGYDYWGQGTQVTVSS,low polyreactivity
21,QVQLVESGGGLVQAGGSLRLSSADSGRTFRYYSMGWYRQAPGKERELVAAISSSGASTYYADSVKGRFTISRDYAKNTVYLQMNSLKPEDTAVYYCRSGILFYSRYDYWGQGTQVTVSS,low polyreactivity
22,QVQLVESGGVLVQAGGSLRLSCAASGSIFERYDMGWYRQAPGKERELVAAITSAGITYYADSVKGRFTISRDNAKNNVYLQMNSLKPEDTAVYYCAAQGRRGAPYRHVNEGDYWGQGTQVTVSS,low polyreactivity

row,Sequence,polyreactivity (PSR sort gate)
1,QVQLVESGGGLVQAGGSLRLSCAASGRIFYWYVMGWYIQAPGKERELVATIRYSGGNTYYADSVKGRFTISRDNAKNTVYLQMNSLKPEDTAVYYCAAGSLYWGRSPTRGGQGGYWGQGTQVTVSS,high polyreactivity
2,QVQLVESGGGLVQAGGSLRLSCAASGRTIRYYTMGWYRQAPGKERELVATIRRGRTTYYADSVKGRFTISRDNEKNTVYLQMYSLKPEDTAVYYCAADFPSAEVDYWGQGTQVTVSS,low polyreactivity
3,QVQLVESGGCLVQAGGSLRLSCAASGSIFPVNAMGWYRQAPGKERELVAAITSSGGTTYYADSVKGRFTISRDNAKNTVYLQMNSLKPEDTAVYYCAADVDVSYWRMEYWGQGTQVTVSS,high polyreactivity
4,QVQLVESGGGLVQAGGSLRLSCAASGSIFPGYSMGWCRQAPGKERELVAAISISGGDTYYADSVKGRFTISRDNAKNTGYFQMNSLKPEDTSVYHCNKEDDDREWFEYYWWYDYWGQGTQVTVTS,high polyreactivity
5,QVQLVESGGGLVQAGGSLRLSCAASGSIFVYYAMGWYRQAPGKERELVAGISRTGGRTYYADSVKGRFTISRDNAKITVYLQMNSLKPEDTAVYYCAAVSYYKSYGEFDYWGQGTQVTVSS,high polyreactivity
6,QVQLVESGGGLVQAGGSLRLSCAASGSIFYAYAMGWYIQAPGKERELVAGINTRGGSTYYADSVKGRFTISRDNAKNTVYLQMNSLKPEDTAVYYCAKGTAPIPYRGRVGTSKSDYWGQGTQVTVSS,low polyreactivity
7,QVQLVESGGGLVQAGGSLRLSCAASGRTFTAYTMGWYRQAPGKERELVASITWSGGSTYYADSVKGRFTISRDNAKNTVYLQMNSLKPEDTAVYYCATAFDYGQFQLSSEFNYWGQGTQVTVSS,low polyreactivity
8,QVQLVESGGVLVQAGGSLRLSCAASGGIFNYYAMGWYRQAPGKERELVAAISASGGSTYYADSVKGRFTISRDNAKNTVYLQMNILKPEDTAVYYCAAGLPYGYGYDYWGQGTQVTVSS,low polyreactivity
9,QVQLVESGGGIVQAGGSLRLSCAASGSIFVTNTMVWYRQAPGKERELVAAISYRGGSTYADSVKGRFTISRDNAKNTVYLQMNSLKPEDTAVYYCAADDLSFVGYYYGYVDDVYCGQGTQVTVSS,high polyreactivity
10,QVQLVESGGGLVQAGGSLRLTCAASGSIYGVYAMGWSIQGPGKEREWVAVISWNGGRTYYADSVKGRFTISRDNAKNTVYLQMNSLKPEDTAVYYCAADTSYRYRDYHVDYWGQGTQVTVSS,high polyreactivity
11,QVQLVESGGGLVQAGGSLRLSGAASGSTFYPNAMGRYRQAPGKERELVAAISGRGGRTYYADSVKGRFTISRDFAKNTVYLQINSLKPEDTAVYYCNIVRASDHYDYWGQGTQVTVSS,high polyreactivity
12,QVQLVESGGRLVQAGGSLRLSCAASGRTSGINAMGWYRQAPGKERELVAAISSGGRTYYADSVKGRFTISRDNAKNTVYLQMNSLKPEDTAVYYCAAVIHWSLYRRMEYWGQGTQVTVSS,high polyreactivity
13,QVQLVESGGGLVQAGGSLRLSCAASGIIFWYYAMGWYRQAPGKERELVAAISSGGSTTYADSVKGRFTISRDNAKNTVYLQMKSLKPEDTAVYYCAAVWLSLFKGWVDTHEYDYWGQGTQVTVSS,low polyreactivity
14,QVQLVESGGGLVQAGGSLRLSCAASGRIFGPYAMGWYRQAPGKDRELVASISYSGGSTYYADSVKGRFTISRDKAKNTVYLQMNSLKPEDTAVYYCDKAGYWRGYNYWGQGTQVTVSS,low polyreactivity
15,QVQLVESGGGLVQAGGSLRLSCAASGFTFWQYAMGWYRQAPGKERELVAAITRDVGSTYYADSVKGRFTISRDNAKNTVYLQMNSLKPEDTAVYYCAKLFGGTYYEYDYWGQGTHVTVSS,low polyreactivity
16,QLQLEESGGGFVQAGGSLRISCAASGAIFLSYAMGWYRQAAAKEMEFVAGISYSGGTTYYADSVKGRFTISRDNAKNTVYLQMNSLKQEVTAVYYCAKRTAVWTSGGYRKRDYWGQATQVTVSS,high polyreactivity
17,QLQLVESGGGLVQAGGSLRLSCAASGRTFIHYAMGWYRQAPGKERELVAAISDDASSTYYADSVKGRFTISRDNAKNTVYLQMNSLKPEDTAVYYCNVELAKVGGVEYDYWGQGTLVTVSS,low polyreactivity
18,QVQLVESGGGLVQAGGSLRLSCAASGSIFSGNAMGWYRQAPGKERELVAAIDWSGDSTYYADSVKGRFTISRDNAKNTVYLQMNSLKPEDTAVYYCNTVSFSWGYSAYDYWGQGTQVTVSS,low polyreactivity
19,QVQLVESGGGLVQAGGSLRLSCAASGFIFSYYTMGWYRQAPGKERELVAAISRNGGSTYYADSVKGRFTISRDNAKNTVYLQMNSLKPEDTAVYYCAKRVFNYQRYDYWGQGTQVSVSS,high polyreactivity
20,QVQLVESGGGLVQAGGSLRLSCAASGPIFVENAMGRNRPAPGKERELVAAISGGGSTDYADSVKGRFTISRDNAKNTVYLEMNSLKPVYTAVYFCNARQVFTTAGGEMDYWGQGTQVTVSS,low polyreactivity
21,QVQLVESGGGLVQAGGSLRLSCAASGSTFDTNAMGWYRQAPGKERELVATITSIGGSTYADSVKGRFTISRDNAKNTVYLQMNSLKPEDTAVYYCATDYVEIDYDYDYWGQGTQVTLSS,low polyreactivity
